Assay results: patent publication US20180155407A1 (Sanofi, published 2018)
Numbered stars: 1 amine (or outer) side, 2 acyl side, 3 side chain; on linkers, the order of the positions; unused ones are H or OH. Square brackets hold non-standard residues; d marks the D form. Side chains are listed from the residue outwards. Ends that are not written are not given here. * marks the point of attachment. γGlu = O=C(O)[C@H](CCC(=O)[*:2])N[*:1]; Stearoyl = CCCCCCCCCCCCCCCCCC(=O)*; Palmitoyl = CCCCCCCCCCCCCCCC(=O)*; AEEA = NCCOCCOCC(=O)O; Aib = CC(C)(N)C(=O)O

B1: SEQ ID NO: 16 (peptide)
peptide: H[Aib]QGTFTSDLSKLK([γGlu-γGlu-AEEA-Palmitoyl])EKQRQ[Aib]EFIEWLKAGGHPS[Aib]KPPPK-NH2
modifications: N-terminus assumed
SMILES: CCCCCCCCCCCCCCCC(=O)NCCOCCOCC(=O)N[C@@H](CCC(=O)N[C@@H](CCC(=O)NCCCC[C@H](NC(=O)[C@H](CC(C)C)NC(=O)[C@H](CCCCN)NC(=O)[C@H](CO)NC(=O)[C@H](CC(C)C)NC(=O)[C@H](CC(=O)O)NC(=O)[C@H](CO)NC(=O)[C@@H](NC(=O)[C@H](Cc1ccccc1)NC(=O)[C@@H](NC(=O)CNC(=O)[C@H](CCC(N)=O)NC(=O)C(C)(C)NC(=O)[C@@H](N)Cc1c[nH]cn1)[C@@H](C)O)[C@@H](C)O)C(=O)N[C@@H](CCC(=O)O)C(=O)N[C@@H](CCCCN)C(=O)N[C@@H](CCC(N)=O)C(=O)N[C@@H](CCCNC(=N)N)C(=O)N[C@@H](CCC(N)=O)C(=O)NC(C)(C)C(=O)N[C@@H](CCC(=O)O)C(=O)N[C@@H](Cc1ccccc1)C(=O)N[C@H](C(=O)N[C@@H](CCC(=O)O)C(=O)N[C@@H](Cc1c[nH]c2ccccc12)C(=O)N[C@@H](CC(C)C)C(=O)N[C@@H](CCCCN)C(=O)N[C@@H](C)C(=O)NCC(=O)NCC(=O)N[C@@H](Cc1c[nH]cn1)C(=O)N1CCC[C@H]1C(=O)N[C@@H](CO)C(=O)NC(C)(C)C(=O)N[C@@H](CCCCN)C(=O)N1CCC[C@H]1C(=O)N1CCC[C@H]1C(=O)N1CCC[C@H]1C(=O)N[C@@H](CCCCN)C(N)=O)[C@@H](C)CC)C(=O)O)C(=O)O
B2: SEQ ID NO: 13 (peptide)
peptide: H[Aib]QGTFTSDLSKLK([γGlu-γGlu-Palmitoyl])EKQRQ[Aib]EFIEWLKA[dA]GHPS[Aib]KPPPK-NH2
modifications: N-terminus assumed
SMILES: CCCCCCCCCCCCCCCC(=O)N[C@@H](CCC(=O)N[C@@H](CCC(=O)NCCCC[C@H](NC(=O)[C@H](CC(C)C)NC(=O)[C@H](CCCCN)NC(=O)[C@H](CO)NC(=O)[C@H](CC(C)C)NC(=O)[C@H](CC(=O)O)NC(=O)[C@H](CO)NC(=O)[C@@H](NC(=O)[C@H](Cc1ccccc1)NC(=O)[C@@H](NC(=O)CNC(=O)[C@H](CCC(N)=O)NC(=O)C(C)(C)NC(=O)[C@@H](N)Cc1c[nH]cn1)[C@@H](C)O)[C@@H](C)O)C(=O)N[C@@H](CCC(=O)O)C(=O)N[C@@H](CCCCN)C(=O)N[C@@H](CCC(N)=O)C(=O)N[C@@H](CCCNC(=N)N)C(=O)N[C@@H](CCC(N)=O)C(=O)NC(C)(C)C(=O)N[C@@H](CCC(=O)O)C(=O)N[C@@H](Cc1ccccc1)C(=O)N[C@H](C(=O)N[C@@H](CCC(=O)O)C(=O)N[C@@H](Cc1c[nH]c2ccccc12)C(=O)N[C@@H](CC(C)C)C(=O)N[C@@H](CCCCN)C(=O)N[C@@H](C)C(=O)N[C@H](C)C(=O)NCC(=O)N[C@@H](Cc1c[nH]cn1)C(=O)N1CCC[C@H]1C(=O)N[C@@H](CO)C(=O)NC(C)(C)C(=O)N[C@@H](CCCCN)C(=O)N1CCC[C@H]1C(=O)N1CCC[C@H]1C(=O)N1CCC[C@H]1C(=O)N[C@@H](CCCCN)C(N)=O)[C@@H](C)CC)C(=O)O)C(=O)O
B3: SEQ ID NO: 15 (peptide)
peptide: H[Aib]QGTFTSDLSKLK([γGlu-Stearoyl])EKQRQ[Aib]EFIEWLKAGGPPS[Aib]KPPPK-NH2
modifications: N-terminus assumed
SMILES: CCCCCCCCCCCCCCCCCC(=O)N[C@@H](CCC(=O)NCCCC[C@H](NC(=O)[C@H](CC(C)C)NC(=O)[C@H](CCCCN)NC(=O)[C@H](CO)NC(=O)[C@H](CC(C)C)NC(=O)[C@H](CC(=O)O)NC(=O)[C@H](CO)NC(=O)[C@@H](NC(=O)[C@H](Cc1ccccc1)NC(=O)[C@@H](NC(=O)CNC(=O)[C@H](CCC(N)=O)NC(=O)C(C)(C)NC(=O)[C@@H](N)Cc1c[nH]cn1)[C@@H](C)O)[C@@H](C)O)C(=O)N[C@@H](CCC(=O)O)C(=O)N[C@@H](CCCCN)C(=O)N[C@@H](CCC(N)=O)C(=O)N[C@@H](CCCNC(=N)N)C(=O)N[C@@H](CCC(N)=O)C(=O)NC(C)(C)C(=O)N[C@@H](CCC(=O)O)C(=O)N[C@@H](Cc1ccccc1)C(=O)N[C@H](C(=O)N[C@@H](CCC(=O)O)C(=O)N[C@@H](Cc1c[nH]c2ccccc12)C(=O)N[C@@H](CC(C)C)C(=O)N[C@@H](CCCCN)C(=O)N[C@@H](C)C(=O)NCC(=O)NCC(=O)N1CCC[C@H]1C(=O)N1CCC[C@H]1C(=O)N[C@@H](CO)C(=O)NC(C)(C)C(=O)N[C@@H](CCCCN)C(=O)N1CCC[C@H]1C(=O)N1CCC[C@H]1C(=O)N1CCC[C@H]1C(=O)N[C@@H](CCCCN)C(N)=O)[C@@H](C)CC)C(=O)O
B4: SEQ ID NO: 17 (peptide)
peptide: H[Aib]QGTFTSDLSKLK([γGlu-γGlu-AEEA-Palmitoyl])EKQRQ[Aib]EFIEWLKA[dA]GHPS[Aib]KPPPK-NH2
modifications: N-terminus assumed
SMILES: CCCCCCCCCCCCCCCC(=O)NCCOCCOCC(=O)N[C@@H](CCC(=O)N[C@@H](CCC(=O)NCCCC[C@H](NC(=O)[C@H](CC(C)C)NC(=O)[C@H](CCCCN)NC(=O)[C@H](CO)NC(=O)[C@H](CC(C)C)NC(=O)[C@H](CC(=O)O)NC(=O)[C@H](CO)NC(=O)[C@@H](NC(=O)[C@H](Cc1ccccc1)NC(=O)[C@@H](NC(=O)CNC(=O)[C@H](CCC(N)=O)NC(=O)C(C)(C)NC(=O)[C@@H](N)Cc1c[nH]cn1)[C@@H](C)O)[C@@H](C)O)C(=O)N[C@@H](CCC(=O)O)C(=O)N[C@@H](CCCCN)C(=O)N[C@@H](CCC(N)=O)C(=O)N[C@@H](CCCNC(=N)N)C(=O)N[C@@H](CCC(N)=O)C(=O)NC(C)(C)C(=O)N[C@@H](CCC(=O)O)C(=O)N[C@@H](Cc1ccccc1)C(=O)N[C@H](C(=O)N[C@@H](CCC(=O)O)C(=O)N[C@@H](Cc1c[nH]c2ccccc12)C(=O)N[C@@H](CC(C)C)C(=O)N[C@@H](CCCCN)C(=O)N[C@@H](C)C(=O)N[C@H](C)C(=O)NCC(=O)N[C@@H](Cc1c[nH]cn1)C(=O)N1CCC[C@H]1C(=O)N[C@@H](CO)C(=O)NC(C)(C)C(=O)N[C@@H](CCCCN)C(=O)N1CCC[C@H]1C(=O)N1CCC[C@H]1C(=O)N1CCC[C@H]1C(=O)N[C@@H](CCCCN)C(N)=O)[C@@H](C)CC)C(=O)O)C(=O)O
B5: SEQ ID NO: 14 (peptide)
peptide: H[Aib]QGTFTSDLSKLK([γGlu-Palmitoyl])EKQRQ[Aib]EFIEWLKAGGPPS[Aib]KPPPK-NH2
modifications: N-terminus assumed
SMILES: CCCCCCCCCCCCCCCC(=O)N[C@@H](CCC(=O)NCCCC[C@H](NC(=O)[C@H](CC(C)C)NC(=O)[C@H](CCCCN)NC(=O)[C@H](CO)NC(=O)[C@H](CC(C)C)NC(=O)[C@H](CC(=O)O)NC(=O)[C@H](CO)NC(=O)[C@@H](NC(=O)[C@H](Cc1ccccc1)NC(=O)[C@@H](NC(=O)CNC(=O)[C@H](CCC(N)=O)NC(=O)C(C)(C)NC(=O)[C@@H](N)Cc1c[nH]cn1)[C@@H](C)O)[C@@H](C)O)C(=O)N[C@@H](CCC(=O)O)C(=O)N[C@@H](CCCCN)C(=O)N[C@@H](CCC(N)=O)C(=O)N[C@@H](CCCNC(=N)N)C(=O)N[C@@H](CCC(N)=O)C(=O)NC(C)(C)C(=O)N[C@@H](CCC(=O)O)C(=O)N[C@@H](Cc1ccccc1)C(=O)N[C@H](C(=O)N[C@@H](CCC(=O)O)C(=O)N[C@@H](Cc1c[nH]c2ccccc12)C(=O)N[C@@H](CC(C)C)C(=O)N[C@@H](CCCCN)C(=O)N[C@@H](C)C(=O)NCC(=O)NCC(=O)N1CCC[C@H]1C(=O)N1CCC[C@H]1C(=O)N[C@@H](CO)C(=O)NC(C)(C)C(=O)N[C@@H](CCCCN)C(=O)N1CCC[C@H]1C(=O)N1CCC[C@H]1C(=O)N1CCC[C@H]1C(=O)N[C@@H](CCCCN)C(N)=O)[C@@H](C)CC)C(=O)O
B6: SEQ ID NO: 12 (peptide)
peptide: H[Aib]QGTFTSDLSKLK([γGlu-γGlu-Palmitoyl])EKQRQ[Aib]EFIEWLKAGGHPS[Aib]KPPPK-NH2
modifications: N-terminus assumed
SMILES: CCCCCCCCCCCCCCCC(=O)N[C@@H](CCC(=O)N[C@@H](CCC(=O)NCCCC[C@H](NC(=O)[C@H](CC(C)C)NC(=O)[C@H](CCCCN)NC(=O)[C@H](CO)NC(=O)[C@H](CC(C)C)NC(=O)[C@H](CC(=O)O)NC(=O)[C@H](CO)NC(=O)[C@@H](NC(=O)[C@H](Cc1ccccc1)NC(=O)[C@@H](NC(=O)CNC(=O)[C@H](CCC(N)=O)NC(=O)C(C)(C)NC(=O)[C@@H](N)Cc1c[nH]cn1)[C@@H](C)O)[C@@H](C)O)C(=O)N[C@@H](CCC(=O)O)C(=O)N[C@@H](CCCCN)C(=O)N[C@@H](CCC(N)=O)C(=O)N[C@@H](CCCNC(=N)N)C(=O)N[C@@H](CCC(N)=O)C(=O)NC(C)(C)C(=O)N[C@@H](CCC(=O)O)C(=O)N[C@@H](Cc1ccccc1)C(=O)N[C@H](C(=O)N[C@@H](CCC(=O)O)C(=O)N[C@@H](Cc1c[nH]c2ccccc12)C(=O)N[C@@H](CC(C)C)C(=O)N[C@@H](CCCCN)C(=O)N[C@@H](C)C(=O)NCC(=O)NCC(=O)N[C@@H](Cc1c[nH]cn1)C(=O)N1CCC[C@H]1C(=O)N[C@@H](CO)C(=O)NC(C)(C)C(=O)N[C@@H](CCCCN)C(=O)N1CCC[C@H]1C(=O)N1CCC[C@H]1C(=O)N1CCC[C@H]1C(=O)N[C@@H](CCCCN)C(N)=O)[C@@H](C)CC)C(=O)O)C(=O)O

Columns and labels:
Assay in all cases: cell-based or functional assay
human GIP receptor = molecular target: T1, human GIP receptor (human, UniProt P48546 22-466)
T1 sequence (looked up): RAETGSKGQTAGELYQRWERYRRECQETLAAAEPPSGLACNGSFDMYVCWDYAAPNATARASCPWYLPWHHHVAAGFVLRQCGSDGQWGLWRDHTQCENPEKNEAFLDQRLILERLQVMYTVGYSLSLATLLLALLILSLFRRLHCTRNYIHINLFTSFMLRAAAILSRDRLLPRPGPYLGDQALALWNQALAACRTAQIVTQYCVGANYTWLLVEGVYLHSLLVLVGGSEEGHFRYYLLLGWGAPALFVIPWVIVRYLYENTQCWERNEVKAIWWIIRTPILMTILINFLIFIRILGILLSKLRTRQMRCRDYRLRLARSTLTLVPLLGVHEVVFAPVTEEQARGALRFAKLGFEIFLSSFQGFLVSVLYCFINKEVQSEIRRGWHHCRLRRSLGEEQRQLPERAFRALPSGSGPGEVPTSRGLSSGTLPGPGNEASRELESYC

human glucagon receptor = human glucagon receptor (human, UniProt P47871 26-477)
Chain of human glucagon receptor (P47871 26-477): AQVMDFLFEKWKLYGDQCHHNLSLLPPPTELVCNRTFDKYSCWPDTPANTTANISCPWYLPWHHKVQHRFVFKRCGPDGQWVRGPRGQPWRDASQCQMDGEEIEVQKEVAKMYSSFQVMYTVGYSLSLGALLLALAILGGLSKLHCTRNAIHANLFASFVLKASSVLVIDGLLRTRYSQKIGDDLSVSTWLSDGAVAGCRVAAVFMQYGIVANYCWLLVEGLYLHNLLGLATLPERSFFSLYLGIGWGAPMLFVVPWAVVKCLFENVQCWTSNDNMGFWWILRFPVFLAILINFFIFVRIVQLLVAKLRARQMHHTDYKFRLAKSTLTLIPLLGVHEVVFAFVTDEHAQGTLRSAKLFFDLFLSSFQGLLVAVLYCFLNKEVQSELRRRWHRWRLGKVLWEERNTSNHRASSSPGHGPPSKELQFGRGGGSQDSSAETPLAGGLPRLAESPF

human GLP-1 receptor = human GLP-1 receptor (human, UniProt P43220 24-463)

Row | Binder | EC50 hGIP R (cAMP formation) (human GIP receptor) [nM] | EC50 hGlucagon R (cAMP formation) (human glucagon receptor) [nM] | EC50 hGLP-1R (cAMP formation) (human GLP-1 receptor) [nM]
1 | B1 | 0.0075 | 0.0186 | 0.0013
2 | B2 | 0.0204 | 0.0258 | 0.0038
3 | B3 | 0.0261 | 0.0156 | 0.0057
4 | B4 | 0.0114 | 0.022 | 0.0018
5 | B5 | 0.0182 | 0.0316 | 0.0057
6 | B6 | 0.0158 | 0.022 | 0.0027
